Laboratory results published in PMC7430664, “Yeast pentatricopeptide protein Dmr1 (Ccm1) binds a repetitive AU-rich motif in the small subunit mitochondrial ribosomal RNA”.

Assays:
Dmr1-His6 [1] = target: T1, Dmr1-His6 (Saccharomyces cerevisiae, UniProt P48237 27-864); assay: nuclease protection; Terminator 5'-3' exonuclease, 2 mM MgCl2; partial; text calls it the 24 nt fragment, legend 15_14; EMSA as in Puchta et al. 2010 (buffer not restated), 15 uL, up to 0.8 ug Dmr1p, BSA to constant protein, 0.2 ug tRNA; PNPase protection: 20 mM Tris-HCl pH 8.0; details: protein: recombinant; tags: His6 (pET28a); label: 32P-UTP
T1 sequence: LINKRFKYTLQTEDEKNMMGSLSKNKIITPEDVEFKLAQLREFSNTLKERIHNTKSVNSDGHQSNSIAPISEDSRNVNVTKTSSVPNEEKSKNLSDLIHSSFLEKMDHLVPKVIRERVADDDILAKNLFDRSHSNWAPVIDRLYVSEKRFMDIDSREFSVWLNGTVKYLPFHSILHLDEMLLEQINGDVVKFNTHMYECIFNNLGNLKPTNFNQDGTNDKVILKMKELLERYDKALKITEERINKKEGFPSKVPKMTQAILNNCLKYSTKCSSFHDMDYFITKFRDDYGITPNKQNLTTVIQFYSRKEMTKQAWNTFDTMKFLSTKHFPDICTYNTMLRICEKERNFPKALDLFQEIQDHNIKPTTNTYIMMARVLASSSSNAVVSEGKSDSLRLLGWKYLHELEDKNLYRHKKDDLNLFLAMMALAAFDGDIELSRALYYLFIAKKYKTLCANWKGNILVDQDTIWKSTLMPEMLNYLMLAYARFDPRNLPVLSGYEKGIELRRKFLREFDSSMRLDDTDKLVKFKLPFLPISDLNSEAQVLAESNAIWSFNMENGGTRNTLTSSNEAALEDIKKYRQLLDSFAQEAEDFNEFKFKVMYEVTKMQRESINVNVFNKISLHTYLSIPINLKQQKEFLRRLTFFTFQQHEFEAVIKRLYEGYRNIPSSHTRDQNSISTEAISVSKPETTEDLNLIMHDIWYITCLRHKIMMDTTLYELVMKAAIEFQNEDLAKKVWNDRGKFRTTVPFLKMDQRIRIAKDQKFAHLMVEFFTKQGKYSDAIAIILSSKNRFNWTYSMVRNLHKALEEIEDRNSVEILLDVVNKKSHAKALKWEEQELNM

[2] = target: T2, Dmr1p (Ccm1p), tag removed (Saccharomyces cerevisiae, UniProt P48237 27-864); assay: EMSA; 0.2 ug tRNA; EMSA as in Puchta et al. 2010 (buffer not restated), 15 uL, up to 0.8 ug Dmr1p, BSA to constant protein, 0.2 ug tRNA; PNPase protection: 20 mM Tris-HCl pH 8.0; details: protein: recombinant; tags: none after TEV cleavage (from Dmr1-MBP-His6); label: 32P-UTP
T2 sequence: T1 sequence

Dmr1-His6 [3] = target: T1, Dmr1-His6; assay: footprinting; Dis3p 3'-5' exoribonuclease, 2 mM MgCl2; stop 3-5 nt downstream of (AUA)4AU; EMSA as in Puchta et al. 2010 (buffer not restated), 15 uL, up to 0.8 ug Dmr1p, BSA to constant protein, 0.2 ug tRNA; PNPase protection: 20 mM Tris-HCl pH 8.0; details: protein: recombinant; tags: His6 (pET28a); label: 32P-UTP
[4] = target: T2, Dmr1p (Ccm1p), tag removed; assay: EMSA; 0.2 ug tRNA; strong; EMSA as in Puchta et al. 2010 (buffer not restated), 15 uL, up to 0.8 ug Dmr1p, BSA to constant protein, 0.2 ug tRNA; PNPase protection: 20 mM Tris-HCl pH 8.0; details: protein: recombinant; tags: none after TEV cleavage (from Dmr1-MBP-His6); label: 32P-UTP
Dmr1-His6 [5] = target: T1, Dmr1-His6; assay: nuclease protection; PNPase, 2 mM MgCl2; complete protection, from 0.1 ug protein; EMSA as in Puchta et al. 2010 (buffer not restated), 15 uL, up to 0.8 ug Dmr1p, BSA to constant protein, 0.2 ug tRNA; PNPase protection: 20 mM Tris-HCl pH 8.0; details: protein: recombinant; tags: His6 (pET28a); label: 32P-UTP
Dmr1-His6 [6] = target: T1, Dmr1-His6; assay: nuclease protection; PNPase, 2 mM MgCl2; not protected; EMSA as in Puchta et al. 2010 (buffer not restated), 15 uL, up to 0.8 ug Dmr1p, BSA to constant protein, 0.2 ug tRNA; PNPase protection: 20 mM Tris-HCl pH 8.0; details: protein: recombinant; tags: His6 (pET28a); label: 32P-UTP

GGAUAAUAAUAAUAAU (ssRNA, 5' monophosphate (polyphosphatase treated)) [15_14 5'-monophosphate]: binds (Dmr1-His6 [1]).

GGUAUAUAUAUAAUAU (ssRNA) [N_14]: no binding [2].

GGAAAUAAUAAUAAUAAUUAUAAGAC (ssRNA) [15_24]: binds [2].

GGAUAAUAAUAAUAAU (ssRNA) [15_14]: binds [2].

GGAAAGAUGAAAUAAUAAUAAUAAUUAUAAGACUAAU (ssRNA) [15_35]: binds (Dmr1-His6 [3]).

GGUUAUAAUAAUAAUAAUAAUAAUAU (ssRNA) [20_24]: binds [4]; binds (Dmr1-His6 [5]).

GGAAAAGGAUAUAUAUAUAAUAUAUA (ssRNA) [N_24]: no binding (Dmr1-His6 [6]); no binding [2].
